This note sets out measurements from article PMC3094755.

“And” between values parts separate entries of the source, which are not always exact repeats. Identical values can stand only once.

Usually Kd stands for the equilibrium constant for the complex coming apart. Low readings indicate a tighter complex, high ones a looser complex.

The target in this series is PARP-1 F1 (Homo sapiens) (UniProt P09874). Nature of the series: fluorescence anisotropy. The following applies: 5'-phosphate; FA: 50 mM Tris-HCl pH 7, 150 uM ZnSO4, 4 mM DTT, 0-200 mM NaCl, 25 C, 10 nM DNA (mutants 25 nM DNA, 25 mM NaCl); EMSA: 50 mM Tris-HCl pH 7.4, 150 uM ZnSO4, 4 mM.
Chain of PARP-1 F1 (Homo sapiens) (P09874 1-108): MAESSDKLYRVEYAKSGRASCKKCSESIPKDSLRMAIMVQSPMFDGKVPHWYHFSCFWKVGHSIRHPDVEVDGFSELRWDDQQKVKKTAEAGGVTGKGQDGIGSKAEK

Consider “CGGTCGATCGTAAGATCGACCGGCGCTGGAGCTTGCTCCAGCGC [44-nt nicked dumbbell, 5'-phosphate, fluorescein-dT]”, for which the Kd was 6.6 µM and 1.1 µM.
